In paper PMC6336319, “EBNA3C facilitates RASSF1A downregulation through ubiquitin-mediated degradation and promoter hypermethylation to drive B-cell proliferation” (PLoS Pathogens, 2019):

Molecular target: T1, Flag-tagged EBNA3C 366-620 (Epstein-Barr virus, UniProt P03204 366-620)
T1 construct: also called pA3F-EBNA3C 366–620; EBNA3C 366-620aa; source: Saos-2, transfected, in lysate
T1 sequence: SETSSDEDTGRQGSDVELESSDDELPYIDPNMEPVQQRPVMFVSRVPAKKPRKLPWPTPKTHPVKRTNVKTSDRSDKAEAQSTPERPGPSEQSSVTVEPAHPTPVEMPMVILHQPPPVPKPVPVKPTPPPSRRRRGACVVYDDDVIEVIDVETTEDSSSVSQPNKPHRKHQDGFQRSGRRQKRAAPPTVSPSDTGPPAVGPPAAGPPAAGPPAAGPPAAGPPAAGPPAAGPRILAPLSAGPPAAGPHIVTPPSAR
Assay: co-IP; Saos-2 cells co-transfected, lysed 48 h later in RIPA buffer (1% NP-40, 10 mM Tris pH 8.0, 2 mM EDTA, 150 mM NaCl); immunoprecipitation with 1 ug anti-Flag antibody, overnight at 4 °C; western blot with anti-Flag and anti-Myc
Conditions: partners not purified

B1: Myc-tagged full-length RASSF1A (Ras association domain family isoform 1A) (natural protein, human, UniProt Q9NS23-2 1-340, looked up)
chain: MSGEPELIELRELAPAGRAGKGRTRLERANALRIARGTACNPTRQLVPGRGHRFQPAGPATHTWCDLCGDFIWGVVRKGLQCAHCKFTCHYRCRALVCLDCCGPRDLGWEPAVERDTNVDEPVEWETPDLSQAEIEQKIKEYNAQINSNLFMSLNKDGSYTGFIKVQLKLVRPVSVPSSKKPPSLQDARRGPGRGTSVRRRTSFYLPKDAVKHLHVLSRTRAREVIEALLRKFLVVDDPRKFALFERAERHGQVYLRKLLDDEQPLRLRLLAGPSDKALSFVLKENDSGEVNWDAFSMPELHNFLRILQREEEEHLRQILQKYSYCRQKIQEALHACPLG
notes: RASSF1A (Ras association domain family isoform 1A), full length, amplified from total RNA by RT-PCR and cloned into pA3M; also called Myc-RASSF1A; pA3M-RASSF1A; source: Saos-2, transfected, in lysate
  signal relative to EBNA3C residues 1-365: ~50%
